Read-outs that look alike come from different tables or passages of the source.

B1: T4 bacteriophage clamp-loader ATPase subunit gp44 (wild type) (natural protein)
chain: MITVNEKEHILEQKYRPSTIDECILPAFDKETFKSITSKGKIPHIILHSPSPGTGKTTVAKALCHDVNADMMFVNGSDCKIDFVRGPLTNFASAASFDGRQKVIVIDEFDRSGLAESQRHLRSFMEAYSSNCSIIITANNIDGIIKPLQSRCRVITFGQPTDEDKIEMMKQMIRRLTEICKHEGIAIADMKVVAALVKKNFPDFRKTIGELDSYSSKGVLDAGILSLVTNDRGAIDDVLESLKNKDVKQLRALAPKYAADYSWFVGKLAEEIYSRVTPQSIIRMYEIVGENNQYHGIAANTELHLAYLFIQLACEMQWK
B2: T4 bacteriophage clamp-loader ATPase subunit gp44 D110C (natural protein)
chain: MITVNEKEHILEQKYRPSTIDECILPAFDKETFKSITSKGKIPHIILHSPSPGTGKTTVAKALCHDVNADMMFVNGSDCKIDFVRGPLTNFASAASFDGRQKVIVIDEFCRSGLAESQRHLRSFMEAYSSNCSIIITANNIDGIIKPLQSRCRVITFGQPTDEDKIEMMKQMIRRLTEICKHEGIAIADMKVVAALVKKNFPDFRKTIGELDSYSSKGVLDAGILSLVTNDRGAIDDVLESLKNKDVKQLRALAPKYAADYSWFVGKLAEEIYSRVTPQSIIRMYEIVGENNQYHGIAANTELHLAYLFIQLACEMQWK
B5: T4 bacteriophage sliding clamp (gp45) (natural protein)
chain: MKLSKDTTALLKNFATINSGIMLKSGQFIMTRAVNGTTYAEANISDVIDFDVAIYDLNGFLGILSLVNDDAEISQSEDGNIKIADARSTIFWPAADPSTVVAPNKPIPFPVASAVTEIKAEDLQQLLRVSRGLQIDTIAITVKEGKIVINGFNKVEDSALTRVKYSLTLGDYDGENTFNFIINMANMKMQPGNYKLLLWAKGKQGAAKFEGEHANYVVALEADSTHDF

Data set [1] concerns the molecule itself. Kind of data set: crystal structure.
Data set [2] deals with the molecule itself. Kind of data set: crystal structure. This is another data set of the same source.
The target in data set [3] is B1. In words: cryo-EM structure.
In data set [4] the target is B2. Kind of data set: crystal structure.
Data set [5] addresses B5. Kind of data set: cryo-EM structure.
The target of data set [6] is T1, T4 clamp loader (gp44/gp62), wild type;T4 sliding clamp gp45 (bacteriophage T4;bacteriophage T4, UniProt P04526;P04527;P04525 1-319;1-187;1-228, |).
T1 sequence 1: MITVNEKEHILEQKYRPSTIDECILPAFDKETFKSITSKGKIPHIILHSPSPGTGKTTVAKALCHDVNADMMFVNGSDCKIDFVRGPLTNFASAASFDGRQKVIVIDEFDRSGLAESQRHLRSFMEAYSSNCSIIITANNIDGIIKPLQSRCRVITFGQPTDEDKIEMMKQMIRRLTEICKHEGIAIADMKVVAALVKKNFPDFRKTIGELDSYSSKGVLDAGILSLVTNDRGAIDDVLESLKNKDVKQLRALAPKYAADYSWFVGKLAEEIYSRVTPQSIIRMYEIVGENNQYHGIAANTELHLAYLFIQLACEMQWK
T1 sequence 2: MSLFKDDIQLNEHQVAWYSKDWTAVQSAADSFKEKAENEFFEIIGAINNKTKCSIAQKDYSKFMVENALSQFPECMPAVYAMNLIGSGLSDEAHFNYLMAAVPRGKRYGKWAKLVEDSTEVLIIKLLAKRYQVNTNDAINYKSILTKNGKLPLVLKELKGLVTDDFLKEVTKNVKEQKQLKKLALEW
T1 sequence 3: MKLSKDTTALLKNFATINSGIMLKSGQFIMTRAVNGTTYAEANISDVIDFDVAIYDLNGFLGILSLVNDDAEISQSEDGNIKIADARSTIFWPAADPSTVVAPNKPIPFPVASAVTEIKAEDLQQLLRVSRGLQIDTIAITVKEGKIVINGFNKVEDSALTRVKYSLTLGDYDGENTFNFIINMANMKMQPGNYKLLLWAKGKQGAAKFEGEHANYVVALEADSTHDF
In words: fluorescence anisotropy. On the technique in general: In fluorescence polarisation assays a small probe gives low polarisation when free and higher when bound to something large.

In data set [7] the target is T2, T4 clamp loader D110C/P50K (P50K*);T4 sliding clamp gp45 (bacteriophage T4;bacteriophage T4, UniProt P04526;P04527;P04525 1-319;1-187;1-228, P50K;D110C|).
T2 sequence 1: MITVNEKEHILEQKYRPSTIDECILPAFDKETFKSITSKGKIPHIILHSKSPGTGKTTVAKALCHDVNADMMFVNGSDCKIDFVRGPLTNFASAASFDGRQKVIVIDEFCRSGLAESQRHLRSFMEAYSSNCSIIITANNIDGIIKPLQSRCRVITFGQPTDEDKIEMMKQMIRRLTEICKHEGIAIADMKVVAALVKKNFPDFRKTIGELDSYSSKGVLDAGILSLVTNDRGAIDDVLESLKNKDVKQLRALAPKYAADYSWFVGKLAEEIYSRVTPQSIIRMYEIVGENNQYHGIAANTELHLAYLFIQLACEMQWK
T2 sequence 2: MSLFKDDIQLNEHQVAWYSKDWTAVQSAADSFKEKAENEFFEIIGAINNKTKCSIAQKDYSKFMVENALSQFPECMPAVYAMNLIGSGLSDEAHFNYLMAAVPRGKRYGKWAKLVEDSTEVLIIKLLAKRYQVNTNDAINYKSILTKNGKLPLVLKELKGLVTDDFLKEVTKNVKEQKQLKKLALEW
T2 sequence 3: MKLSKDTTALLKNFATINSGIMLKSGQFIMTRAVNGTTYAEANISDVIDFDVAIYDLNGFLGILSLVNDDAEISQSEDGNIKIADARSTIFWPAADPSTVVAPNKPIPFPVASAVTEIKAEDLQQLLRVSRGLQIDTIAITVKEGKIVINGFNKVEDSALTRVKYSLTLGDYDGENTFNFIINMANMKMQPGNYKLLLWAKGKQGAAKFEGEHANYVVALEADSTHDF
In words: fluorescence anisotropy.

In data set [8] the target is T3, T4 clamp loader D110C/G143R;T4 sliding clamp gp45 (bacteriophage T4;bacteriophage T4, UniProt P04526;P04527;P04525 1-319;1-187;1-228, D110C;G143R|).
T3 sequence 1: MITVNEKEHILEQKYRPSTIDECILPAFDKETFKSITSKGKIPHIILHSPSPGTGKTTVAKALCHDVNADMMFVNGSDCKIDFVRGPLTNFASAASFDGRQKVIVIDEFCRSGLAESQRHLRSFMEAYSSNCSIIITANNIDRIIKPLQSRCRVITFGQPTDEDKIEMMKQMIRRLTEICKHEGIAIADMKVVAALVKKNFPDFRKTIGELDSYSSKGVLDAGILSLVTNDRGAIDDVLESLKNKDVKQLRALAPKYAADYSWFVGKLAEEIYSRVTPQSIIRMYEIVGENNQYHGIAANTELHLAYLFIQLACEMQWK
T3 sequence 2: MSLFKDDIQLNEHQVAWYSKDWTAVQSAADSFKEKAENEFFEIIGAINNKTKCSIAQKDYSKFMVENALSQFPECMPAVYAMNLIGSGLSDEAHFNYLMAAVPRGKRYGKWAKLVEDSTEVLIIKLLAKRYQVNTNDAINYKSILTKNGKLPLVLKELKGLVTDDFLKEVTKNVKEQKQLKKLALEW
T3 sequence 3: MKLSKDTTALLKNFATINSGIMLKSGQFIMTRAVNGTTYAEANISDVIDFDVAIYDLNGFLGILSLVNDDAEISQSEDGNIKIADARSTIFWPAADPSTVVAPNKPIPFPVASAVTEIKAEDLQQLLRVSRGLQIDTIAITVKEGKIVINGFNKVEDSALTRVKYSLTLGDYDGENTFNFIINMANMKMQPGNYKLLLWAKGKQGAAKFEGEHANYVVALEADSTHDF
Kind of data set: fluorescence anisotropy.

For the molecule B1, the binding result in the data set “crystal structure [1]” is “binds”.

As to B2, the binding result in “crystal structure [2]” is listed as “binds”.

B3: T4 bacteriophage clamp-loader clasp subunit gp62 (natural protein)
chain: MSLFKDDIQLNEHQVAWYSKDWTAVQSAADSFKEKAENEFFEIIGAINNKTKCSIAQKDYSKFMVENALSQFPECMPAVYAMNLIGSGLSDEAHFNYLMAAVPRGKRYGKWAKLVEDSTEVLIIKLLAKRYQVNTNDAINYKSILTKNGKLPLVLKELKGLVTDDFLKEVTKNVKEQKQLKKLALEW
For the molecule B3, the binding result in data set [3], in data set [4] and in data set [5] was “binds” throughout.

B4: TAMRA primer-template DNA (dsDNA)
DNA 1: TTTTTTTTTTTTATGTACTCGTAGTGTCTG
DNA 2: GCAGACACTACGAGTACATA
The Kd is the equilibrium constant for the complex coming apart. The low end stands for tighter binding, the high end for weaker binding. As to B4, the Kd in data set [6] was approximately 40 nM. For the same molecule, the binding result in data set [7] and in data set [8] was “binds” each time.

With B5, the binding result in “crystal structure [2]” is listed as “binds”.

The values above are taken from publication PMC10950542 (Nature structural & molecular biology, 2024).
